Reference: article PMC8967866

Biological target: Cyanophora paradoxa photosystem I monomer2 (PSI-monomer unit lacking PsaK) (Cyanophora paradoxa (endogenous, strain NIES-547)) (UniProt P48112)
Assay: cryo-EM structure; PSI tetramer purified from Cyanophora thylakoids; GraFix (glutaraldehyde cross-linked) tetramer at 3.8 Å with C2 symmetry; unfixed wild-type tetramer at 4.0 Å; focused maps of monomer1 and monomer2 at 3.3 Å and 3.2 Å; 0.03% β-DDM, 50 mM Mes-NaOH pH 6.5

Chain of UniProt P48112 (P48112 whole entry, looked up): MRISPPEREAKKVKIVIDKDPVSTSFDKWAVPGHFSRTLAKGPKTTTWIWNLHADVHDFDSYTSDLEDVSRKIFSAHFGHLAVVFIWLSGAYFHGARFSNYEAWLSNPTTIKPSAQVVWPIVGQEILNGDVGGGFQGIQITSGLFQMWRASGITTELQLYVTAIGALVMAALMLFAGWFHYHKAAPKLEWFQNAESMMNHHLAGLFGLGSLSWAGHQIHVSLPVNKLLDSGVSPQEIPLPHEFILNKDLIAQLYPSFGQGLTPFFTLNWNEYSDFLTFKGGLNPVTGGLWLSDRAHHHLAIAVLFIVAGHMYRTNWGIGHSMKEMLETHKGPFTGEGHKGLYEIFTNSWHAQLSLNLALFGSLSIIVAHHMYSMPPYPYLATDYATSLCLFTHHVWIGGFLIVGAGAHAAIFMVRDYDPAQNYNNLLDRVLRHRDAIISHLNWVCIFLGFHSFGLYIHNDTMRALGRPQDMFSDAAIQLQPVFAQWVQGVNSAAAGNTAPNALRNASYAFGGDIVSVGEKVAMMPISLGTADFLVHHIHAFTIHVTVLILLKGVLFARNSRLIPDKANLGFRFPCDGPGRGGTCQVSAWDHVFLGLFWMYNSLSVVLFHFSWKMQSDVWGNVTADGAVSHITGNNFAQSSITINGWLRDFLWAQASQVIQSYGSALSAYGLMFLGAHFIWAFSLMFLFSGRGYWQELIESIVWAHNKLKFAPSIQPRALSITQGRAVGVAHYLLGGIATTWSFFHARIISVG

Substance: Cyanophora paradoxa photosystem I monomer1 (PSI-monomer unit with PsaK) (from UniProt P48112 1-752; P31173 1-81; Q9T4W8 54-220; P48114 1-70; P48115 26-186; P48116 1-35; P48117 1-40; P48185 1-31) (complex)
- stoichiometry N (PSI-monomer units): 4
